# From patent US20260049138A1 (Chugai, published 2026)
# Molecular target: T1, CD3ε homodimer protein (human, UniProt P07766 23-126, limits assumed, sulfo-tag or biotin label in the ECL assays; amine-coupled to the chip in SPR)
# T1 construct: also called human CD3ε homodimer protein; CD3 (CD3ε)
# Test: SPR Biacore T200; CD3ε homodimer on CM4 chip;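 note: Single-residue variant antibodies injected as analyte over CD3ε homodimer immobilized by amine coupling, run at 25 °C in HBS-EP+ buffer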
# T1 sequence (P07766 23-126 limits assumed): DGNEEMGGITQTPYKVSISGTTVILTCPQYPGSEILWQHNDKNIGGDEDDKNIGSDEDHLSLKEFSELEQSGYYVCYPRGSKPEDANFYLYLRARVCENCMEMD
row,Binder,ratio of amounts bound Z=Y/X (altered form / CE115HA000)
1,"CE115HA000 V95A one-arm antibody (antibody, human IgG1, kappa, L234A L235A, N297A, name in Kabat numbering) heavy: QVQLVESGGGVVQPGRSLRLSCAASGFTFSNAWMHWVRQAPGKGLEWVAQIKAKSNNYATYYAESVKGRFTISRDDSKNSLYLQMNSLKTEDTAVYYCRYAHYGAYYGVDAWGQGTTVTVSSASTKGPSVFPLAPSSKSTSGGTAALGCLVKDYFPEPVTVSWNSGALTSGVHTFPAVLQSSGLYSLSSVVTVPSSSLGTQTYICNVNHKPSNTKVDKKVEPKSCDKTHTCPPCPAPEAAGGPSVFLFPPKPKDTLMISRTPEVTCVVVDVSHEDPEVKFNWYVDGVEVHNAKTKPREEQYASTYRVVSVLTVLHQDWLNGKEYKCKVSNKALPAPIEKTISKAKGQPREPQVYTLPPSRCELTKNQVSLSCAVKGFYPSDIAVEWESNGQPENNYKTTPPVLDSDGSFFLVSKLTVDKSRWQQGNVFSCSVMHEALHNHYTQKSLSLSPDYKDDDDK EPKSSDKTHTCPPCPAPELLGGPSVFLFPPKPKDTLMISRTPEVTCVVVDVSHEDPEVKFNWYVDGVEVHNAKTKPREEQYNSTYRVVSVLTVLHQDWLNGKEYKCKVSNKALPAPIEKTISKAKGQPREPQVCTLPPSRDELTKNQVSLWCLVKGFYPSDIAVEWESNGQPENNYKTTPPVLDSDGSFFLYSKLTVDKSRWQQGNVFSCSVMHEALHNRYTQKSLSLSP light: DIVMTQSPLSLPVTPGEPASISCRSSQSLVHSNRNTYLHWYQQKPGQAPRLLIYKVSNRFSGVPDRFSGSGSGTDFTLKISRVEAEDVGVYYCGQGTQVPYTFGQGTKLEIKRTVAAPSVFIFPPSDEQLKSGTASVVCLLNNFYPREAKVQWKVDNALQSGNSQESVTEQDSKDSTYSLSSTLTLSKADYEKHKVYACEVTHQGLSSPVTKSFNRGEC",0.11
2,"CE115HA000 V95D one-arm antibody (antibody, human IgG1, kappa, L234A L235A, N297A, name in Kabat numbering) heavy: QVQLVESGGGVVQPGRSLRLSCAASGFTFSNAWMHWVRQAPGKGLEWVAQIKAKSNNYATYYAESVKGRFTISRDDSKNSLYLQMNSLKTEDTAVYYCRYDHYGAYYGVDAWGQGTTVTVSSASTKGPSVFPLAPSSKSTSGGTAALGCLVKDYFPEPVTVSWNSGALTSGVHTFPAVLQSSGLYSLSSVVTVPSSSLGTQTYICNVNHKPSNTKVDKKVEPKSCDKTHTCPPCPAPEAAGGPSVFLFPPKPKDTLMISRTPEVTCVVVDVSHEDPEVKFNWYVDGVEVHNAKTKPREEQYASTYRVVSVLTVLHQDWLNGKEYKCKVSNKALPAPIEKTISKAKGQPREPQVYTLPPSRCELTKNQVSLSCAVKGFYPSDIAVEWESNGQPENNYKTTPPVLDSDGSFFLVSKLTVDKSRWQQGNVFSCSVMHEALHNHYTQKSLSLSPDYKDDDDK EPKSSDKTHTCPPCPAPELLGGPSVFLFPPKPKDTLMISRTPEVTCVVVDVSHEDPEVKFNWYVDGVEVHNAKTKPREEQYNSTYRVVSVLTVLHQDWLNGKEYKCKVSNKALPAPIEKTISKAKGQPREPQVCTLPPSRDELTKNQVSLWCLVKGFYPSDIAVEWESNGQPENNYKTTPPVLDSDGSFFLYSKLTVDKSRWQQGNVFSCSVMHEALHNRYTQKSLSLSP light: DIVMTQSPLSLPVTPGEPASISCRSSQSLVHSNRNTYLHWYQQKPGQAPRLLIYKVSNRFSGVPDRFSGSGSGTDFTLKISRVEAEDVGVYYCGQGTQVPYTFGQGTKLEIKRTVAAPSVFIFPPSDEQLKSGTASVVCLLNNFYPREAKVQWKVDNALQSGNSQESVTEQDSKDSTYSLSSTLTLSKADYEKHKVYACEVTHQGLSSPVTKSFNRGEC",0.24
3,"CE115HA000 V95G one-arm antibody (antibody, human IgG1, kappa, L234A L235A, N297A, name in Kabat numbering) heavy: QVQLVESGGGVVQPGRSLRLSCAASGFTFSNAWMHWVRQAPGKGLEWVAQIKAKSNNYATYYAESVKGRFTISRDDSKNSLYLQMNSLKTEDTAVYYCRYGHYGAYYGVDAWGQGTTVTVSSASTKGPSVFPLAPSSKSTSGGTAALGCLVKDYFPEPVTVSWNSGALTSGVHTFPAVLQSSGLYSLSSVVTVPSSSLGTQTYICNVNHKPSNTKVDKKVEPKSCDKTHTCPPCPAPEAAGGPSVFLFPPKPKDTLMISRTPEVTCVVVDVSHEDPEVKFNWYVDGVEVHNAKTKPREEQYASTYRVVSVLTVLHQDWLNGKEYKCKVSNKALPAPIEKTISKAKGQPREPQVYTLPPSRCELTKNQVSLSCAVKGFYPSDIAVEWESNGQPENNYKTTPPVLDSDGSFFLVSKLTVDKSRWQQGNVFSCSVMHEALHNHYTQKSLSLSPDYKDDDDK EPKSSDKTHTCPPCPAPELLGGPSVFLFPPKPKDTLMISRTPEVTCVVVDVSHEDPEVKFNWYVDGVEVHNAKTKPREEQYNSTYRVVSVLTVLHQDWLNGKEYKCKVSNKALPAPIEKTISKAKGQPREPQVCTLPPSRDELTKNQVSLWCLVKGFYPSDIAVEWESNGQPENNYKTTPPVLDSDGSFFLYSKLTVDKSRWQQGNVFSCSVMHEALHNRYTQKSLSLSP light: DIVMTQSPLSLPVTPGEPASISCRSSQSLVHSNRNTYLHWYQQKPGQAPRLLIYKVSNRFSGVPDRFSGSGSGTDFTLKISRVEAEDVGVYYCGQGTQVPYTFGQGTKLEIKRTVAAPSVFIFPPSDEQLKSGTASVVCLLNNFYPREAKVQWKVDNALQSGNSQESVTEQDSKDSTYSLSSTLTLSKADYEKHKVYACEVTHQGLSSPVTKSFNRGEC",0.19
4,"CE115HA000 V95S one-arm antibody (antibody, human IgG1, kappa, L234A L235A, N297A, name in Kabat numbering) heavy: QVQLVESGGGVVQPGRSLRLSCAASGFTFSNAWMHWVRQAPGKGLEWVAQIKAKSNNYATYYAESVKGRFTISRDDSKNSLYLQMNSLKTEDTAVYYCRYSHYGAYYGVDAWGQGTTVTVSSASTKGPSVFPLAPSSKSTSGGTAALGCLVKDYFPEPVTVSWNSGALTSGVHTFPAVLQSSGLYSLSSVVTVPSSSLGTQTYICNVNHKPSNTKVDKKVEPKSCDKTHTCPPCPAPEAAGGPSVFLFPPKPKDTLMISRTPEVTCVVVDVSHEDPEVKFNWYVDGVEVHNAKTKPREEQYASTYRVVSVLTVLHQDWLNGKEYKCKVSNKALPAPIEKTISKAKGQPREPQVYTLPPSRCELTKNQVSLSCAVKGFYPSDIAVEWESNGQPENNYKTTPPVLDSDGSFFLVSKLTVDKSRWQQGNVFSCSVMHEALHNHYTQKSLSLSPDYKDDDDK EPKSSDKTHTCPPCPAPELLGGPSVFLFPPKPKDTLMISRTPEVTCVVVDVSHEDPEVKFNWYVDGVEVHNAKTKPREEQYNSTYRVVSVLTVLHQDWLNGKEYKCKVSNKALPAPIEKTISKAKGQPREPQVCTLPPSRDELTKNQVSLWCLVKGFYPSDIAVEWESNGQPENNYKTTPPVLDSDGSFFLYSKLTVDKSRWQQGNVFSCSVMHEALHNRYTQKSLSLSP light: DIVMTQSPLSLPVTPGEPASISCRSSQSLVHSNRNTYLHWYQQKPGQAPRLLIYKVSNRFSGVPDRFSGSGSGTDFTLKISRVEAEDVGVYYCGQGTQVPYTFGQGTKLEIKRTVAAPSVFIFPPSDEQLKSGTASVVCLLNNFYPREAKVQWKVDNALQSGNSQESVTEQDSKDSTYSLSSTLTLSKADYEKHKVYACEVTHQGLSSPVTKSFNRGEC",0.22
5,"CE115HA000 V95K one-arm antibody (antibody, human IgG1, kappa, L234A L235A, N297A, name in Kabat numbering) heavy: QVQLVESGGGVVQPGRSLRLSCAASGFTFSNAWMHWVRQAPGKGLEWVAQIKAKSNNYATYYAESVKGRFTISRDDSKNSLYLQMNSLKTEDTAVYYCRYKHYGAYYGVDAWGQGTTVTVSSASTKGPSVFPLAPSSKSTSGGTAALGCLVKDYFPEPVTVSWNSGALTSGVHTFPAVLQSSGLYSLSSVVTVPSSSLGTQTYICNVNHKPSNTKVDKKVEPKSCDKTHTCPPCPAPEAAGGPSVFLFPPKPKDTLMISRTPEVTCVVVDVSHEDPEVKFNWYVDGVEVHNAKTKPREEQYASTYRVVSVLTVLHQDWLNGKEYKCKVSNKALPAPIEKTISKAKGQPREPQVYTLPPSRCELTKNQVSLSCAVKGFYPSDIAVEWESNGQPENNYKTTPPVLDSDGSFFLVSKLTVDKSRWQQGNVFSCSVMHEALHNHYTQKSLSLSPDYKDDDDK EPKSSDKTHTCPPCPAPELLGGPSVFLFPPKPKDTLMISRTPEVTCVVVDVSHEDPEVKFNWYVDGVEVHNAKTKPREEQYNSTYRVVSVLTVLHQDWLNGKEYKCKVSNKALPAPIEKTISKAKGQPREPQVCTLPPSRDELTKNQVSLWCLVKGFYPSDIAVEWESNGQPENNYKTTPPVLDSDGSFFLYSKLTVDKSRWQQGNVFSCSVMHEALHNRYTQKSLSLSP light: DIVMTQSPLSLPVTPGEPASISCRSSQSLVHSNRNTYLHWYQQKPGQAPRLLIYKVSNRFSGVPDRFSGSGSGTDFTLKISRVEAEDVGVYYCGQGTQVPYTFGQGTKLEIKRTVAAPSVFIFPPSDEQLKSGTASVVCLLNNFYPREAKVQWKVDNALQSGNSQESVTEQDSKDSTYSLSSTLTLSKADYEKHKVYACEVTHQGLSSPVTKSFNRGEC",0.64
6,"CE115HA000 V95E one-arm antibody (antibody, human IgG1, kappa, L234A L235A, N297A, name in Kabat numbering) heavy: QVQLVESGGGVVQPGRSLRLSCAASGFTFSNAWMHWVRQAPGKGLEWVAQIKAKSNNYATYYAESVKGRFTISRDDSKNSLYLQMNSLKTEDTAVYYCRYEHYGAYYGVDAWGQGTTVTVSSASTKGPSVFPLAPSSKSTSGGTAALGCLVKDYFPEPVTVSWNSGALTSGVHTFPAVLQSSGLYSLSSVVTVPSSSLGTQTYICNVNHKPSNTKVDKKVEPKSCDKTHTCPPCPAPEAAGGPSVFLFPPKPKDTLMISRTPEVTCVVVDVSHEDPEVKFNWYVDGVEVHNAKTKPREEQYASTYRVVSVLTVLHQDWLNGKEYKCKVSNKALPAPIEKTISKAKGQPREPQVYTLPPSRCELTKNQVSLSCAVKGFYPSDIAVEWESNGQPENNYKTTPPVLDSDGSFFLVSKLTVDKSRWQQGNVFSCSVMHEALHNHYTQKSLSLSPDYKDDDDK EPKSSDKTHTCPPCPAPELLGGPSVFLFPPKPKDTLMISRTPEVTCVVVDVSHEDPEVKFNWYVDGVEVHNAKTKPREEQYNSTYRVVSVLTVLHQDWLNGKEYKCKVSNKALPAPIEKTISKAKGQPREPQVCTLPPSRDELTKNQVSLWCLVKGFYPSDIAVEWESNGQPENNYKTTPPVLDSDGSFFLYSKLTVDKSRWQQGNVFSCSVMHEALHNRYTQKSLSLSP light: DIVMTQSPLSLPVTPGEPASISCRSSQSLVHSNRNTYLHWYQQKPGQAPRLLIYKVSNRFSGVPDRFSGSGSGTDFTLKISRVEAEDVGVYYCGQGTQVPYTFGQGTKLEIKRTVAAPSVFIFPPSDEQLKSGTASVVCLLNNFYPREAKVQWKVDNALQSGNSQESVTEQDSKDSTYSLSSTLTLSKADYEKHKVYACEVTHQGLSSPVTKSFNRGEC",0.24
